B1: LG214A8 (VHH)
VHH: EVQLVKSGGGSVQAGGSLRLSCAASGGTFNPYVMAWFRQAPGNEREFVARIRWSGGDAYYDDSVKGRFAITRDAAKNTVHLQMNSLKPEDTAVYYCAAATYGYGSYTYGGSYDLWGQGTQVTVSS
B2: LG212A2 (VHH)
VHH: EVQLVESGGGLVQAGGSLRLSCAASGRTFDTYFVGWFRQAPGKERDFVAAISWSGDRTFYADSVKGRFTISRDNAKNTEYLQMNSLKPEDTAVYYCAAREYGRLYSDSEAYDYWGQGTQVTVSS
B3: LG213B7 (VHH)
VHH: EVQLVESGGGLVQAGGSLRLSCTVSGDTFDNSAAGWYRATSETQRELVARIRSSGSTNYADSVKGRFTVSRDNAKNTVYLQMNSLKPEDTAVYYCNVVSYGEYFWGKGTLVTVSS
B4: LG213D7 (VHH)
VHH: B3 VHH
B5: LG214C10 (VHH)
VHH: EVQLVESGGGLVQPGGSLRLSCAASGFIFGSYDMSWVRQAPGKGPEWVSGINSGGGSTGYADSVKGRFTISRDNAKNTLYLQMNSLKPEDTAVYYCSTNLYPTTDDVWGQGTQVTVSS
B6: LG214F8 (VHH)
VHH: EVQLVESGGDLVQAGGSLRLSCVASGSTYSINAMGWYRQAPGKLRELVAAFRTGGSTDYADSVKGRFTISRDTAKNTVYLQMNSLKPEDTAVYYCNAEVIYYPYDYWGQGTQVTVSS
B7: LG191E4 (VHH)
VHH: EVQLVESGGGLVQAGGSLRLSCAASGPTFSADTMGWFRQAPGKEREFVATIPWSGGIAYYSDSVKGRFTMSRDNAKNTVDLQMNSLKPEDTALYYCAGSSRIYIYSDSLSERSYDYWGQGTQVTVSS
B8: LG192C4 (VHH)
VHH: EVQLVESGGGLVQAGGSLRLSCEASGRTFSSYAMVGWFRQAPGKEREFVAAVTRWSGARTVYADSVKGRFTISRDNAENTVYLQMNSLKPEDTAVYTCAADSTNRNSGAVYYSWAYDYWGQGTQVTVSS
B9: LG213D6 (VHH)
VHH: EVQLVESGGGLVQPGGSLRLSCAASGFTFGDSDMSWVRQAPGEGPEWVAGINSGGGSTVYADSVKGRFTISRDNAKNMLYLQMNSLKPEDTAVYLCAQGLMAEVTAGYWGQGTQVTVSS
B10: 213-E6 5GS 213-E6 (VHH)
chain: EVQLVESGGGLVQAGASLRLSCAASGSTLSRYGVGWFRQAPGKERELVASVDWSGSRTYYADSVKGRFTISRDNAKNTGYLQMNSLKPDDTAVYYCAADSSVVPGIEKYDDWGLGTQVTVSSGGGGSEVQLVESGGGLVQAGASLRLSCAASGSTLSRYGVGWFRQAPGKERELVASVDWSGSRTYYADSVKGRFTISRDNAKNTGYLQMNSLKPDDTAVYYCAADSSVVPGIEKYDDWGLGTQVTVSS
B11: 212-C12 15GS 212-C12 (VHH)
chain: EVQLVESGGGLVQPGGSLRLSCAASGFTFGSSDMSWVRQAPGKGPEWVSGINSGGGRTLYADSVKGRFTISRDNAKNTLYLQMNSLKSEDTAVYYCATDLYGSSWYTDYWSQGTQVTVSSGGGGSGGGGSGGGGSEVQLVESGGGLVQPGGSLRLSCAASGFTFGSSDMSWVRQAPGKGPEWVSGINSGGGRTLYADSVKGRFTISRDNAKNTLYLQMNSLKSEDTAVYYCATDLYGSSWYTDYWSQGTQVTVSS
B12: 213-H7 15GS 213-H7 (VHH)
chain: EVQLVESGGGLVQAGGSLRLSCAASGRTLSSYRMGWFRQAPGKEREFISTISWNGRSTYYADSVKGRFIFSEDNAKNTVYLQMNSLKPEDTAVYYCAAALIGGYYSDVDAWSYWGPGTQVTVSSGGGGSGGGGSGGGGSEVQLVESGGGLVQAGGSLRLSCAASGRTLSSYRMGWFRQAPGKEREFISTISWNGRSTYYADSVKGRFIFSEDNAKNTVYLQMNSLKPEDTAVYYCAAALIGGYYSDVDAWSYWGPGTQVTVSS
B13: 214-E8 15GS 214-E8 (VHH)
chain: EVQLVESGGGSVQAGGSLRLSCAASGGTFNPYVMAWFRQAPGNEREFVARIRWSGGDAYYDDSVKGRFAITRDAAKNTVHLQMNSLKPEDTAVYYCAAATYGYGSYTYGGSYDLWGQGTQVTVSSGGGGSGGGGSGGGGSEVQLVESGGGSVQAGGSLRLSCAASGGTFNPYVMAWFRQAPGNEREFVARIRWSGGDAYYDDSVKGRFAITRDAAKNTVHLQMNSLKPEDTAVYYCAAATYGYGSYTYGGSYDLWGQGTQVTVSS

Where only a bound is given, the exact number is not on record here.

Chain of Rabies virus glycoprotein G, Challenge Virus Standard (CVS)-11 strain (Rabies virus, strain CVS-11 (genotype 1 Lyssavirus)) (O92284 20-524 limits assumed): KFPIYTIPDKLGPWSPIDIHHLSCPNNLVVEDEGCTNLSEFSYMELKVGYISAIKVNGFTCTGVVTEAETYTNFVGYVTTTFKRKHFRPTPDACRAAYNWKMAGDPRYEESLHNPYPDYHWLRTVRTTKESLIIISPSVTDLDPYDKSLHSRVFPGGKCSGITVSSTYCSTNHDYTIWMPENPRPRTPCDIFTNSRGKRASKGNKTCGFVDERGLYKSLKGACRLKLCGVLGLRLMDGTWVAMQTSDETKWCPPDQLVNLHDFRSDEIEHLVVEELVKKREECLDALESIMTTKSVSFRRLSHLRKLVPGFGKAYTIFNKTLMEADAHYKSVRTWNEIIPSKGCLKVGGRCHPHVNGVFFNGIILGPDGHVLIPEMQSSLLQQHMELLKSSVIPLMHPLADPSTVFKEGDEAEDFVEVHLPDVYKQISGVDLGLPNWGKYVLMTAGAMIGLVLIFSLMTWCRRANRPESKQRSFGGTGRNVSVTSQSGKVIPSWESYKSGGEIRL

The first assay has as its target Rabies virus glycoprotein G, Challenge Virus Standard (CVS)-11 strain (Rabies virus, strain CVS-11 (genotype 1 Lyssavirus)) (UniProt O92284). Put plainly: cell-based or functional assay.
The molecule B1 displayed a CVS-11 neutralizing antibody titer (RFFIT), IU/mg of 7.93 IU/mg; a CVS-11 neutralizing antibody titer (RFFIT), IU/ml of 9.12 IU/ml; a CVS-11 neutralizing antibody titer (RFFIT), IU/µM of 0.12 IU/µM; a CVS-11 neutralizing antibody titer (RFFIT), nM IC50 of 293 nM.
Consider B2, for which the CVS-11 neutralizing antibody titer (RFFIT), IU/mg was 1.72 IU/mg; the CVS-11 neutralizing antibody titer (RFFIT), IU/ml came out at 1.62 IU/ml; the CVS-11 neutralizing antibody titer (RFFIT), IU/µM was determined as 0.03 IU/µM; the CVS-11 neutralizing antibody titer (RFFIT), nM IC50 amounted to 1340 nM.
B3 returned a CVS-11 neutralizing antibody titer (RFFIT), IU/mg of 7.38 IU/mg; a CVS-11 neutralizing antibody titer (RFFIT), IU/ml of 4.87 IU/ml; a CVS-11 neutralizing antibody titer (RFFIT), IU/µM of 0.11 IU/µM; a CVS-11 neutralizing antibody titer (RFFIT), nM IC50 of 316 nM.
In the same order, the values of B4 are 7.61 IU/mg, 5.1 IU/ml, 0.11 IU/µM and 305 nM.
Molecule B5 had a CVS-11 neutralizing antibody titer (RFFIT), IU/mg of 10.6 IU/mg; a CVS-11 neutralizing antibody titer (RFFIT), IU/ml of 4.24 IU/ml; a CVS-11 neutralizing antibody titer (RFFIT), IU/µM of 0.16 IU/µM; a CVS-11 neutralizing antibody titer (RFFIT), nM IC50 of 220 nM.
B6: the CVS-11 neutralizing antibody titer (RFFIT), IU/mg amounted to 7.19 IU/mg; the CVS-11 neutralizing antibody titer (RFFIT), IU/ml stood at 1.15 IU/ml; the CVS-11 neutralizing antibody titer (RFFIT), IU/µM came to 0.11 IU/µM; the CVS-11 neutralizing antibody titer (RFFIT), nM IC50 turned out to be 325 nM.
B7 had a CVS-11 neutralizing antibody titer (RFFIT), IU/mg of less than 0.63 IU/mg; a CVS-11 neutralizing antibody titer (RFFIT), IU/ml of less than 0.5 IU/ml; a CVS-11 neutralizing antibody titer (RFFIT), IU/µM of less than 0.01 IU/µM; a CVS-11 neutralizing antibody titer (RFFIT), nM IC50 of more than 5960 nM.
For the molecule B8, the CVS-11 neutralizing antibody titer (RFFIT), IU/mg was less than 0.63 IU/mg; the CVS-11 neutralizing antibody titer (RFFIT), IU/ml is less than 0.5 IU/ml; the CVS-11 neutralizing antibody titer (RFFIT), IU/µM was less than 0.01 IU/µM; the CVS-11 neutralizing antibody titer (RFFIT), nM IC50 is more than 5880 nM.
The matching figures for B9: less than 0.48 IU/mg, less than 0.5 IU/ml, less than 0.01 IU/µM and more than 7820 nM.

The target of the next assay is Rabies virus glycoprotein G, ERA strain (attenuated vaccine strain, ATCC VR332) (Rabies virus, ERA strain (genotype 1 lyssavirus)) (UniProt P03524). Put plainly: cell-based or functional assay.
Chain of Rabies virus glycoprotein G, ERA strain (attenuated vaccine strain, ATCC VR332) (Rabies virus, ERA strain (genotype 1 lyssavirus)) (P03524 20-524 limits assumed): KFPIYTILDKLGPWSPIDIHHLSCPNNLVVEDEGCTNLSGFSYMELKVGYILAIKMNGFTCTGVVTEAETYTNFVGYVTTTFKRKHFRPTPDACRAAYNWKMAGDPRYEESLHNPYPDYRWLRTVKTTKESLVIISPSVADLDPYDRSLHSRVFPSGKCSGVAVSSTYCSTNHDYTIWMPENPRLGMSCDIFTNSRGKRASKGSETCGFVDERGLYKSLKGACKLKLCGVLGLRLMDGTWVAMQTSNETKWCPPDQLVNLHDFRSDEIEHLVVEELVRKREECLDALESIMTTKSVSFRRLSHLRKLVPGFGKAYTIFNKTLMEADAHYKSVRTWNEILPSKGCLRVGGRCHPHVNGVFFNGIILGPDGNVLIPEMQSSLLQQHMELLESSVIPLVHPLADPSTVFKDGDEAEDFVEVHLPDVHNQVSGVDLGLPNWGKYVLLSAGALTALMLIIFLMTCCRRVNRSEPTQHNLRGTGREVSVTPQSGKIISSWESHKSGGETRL
B1 displayed an ERA neutralizing antibody titer (RFFIT): EU/mg of less than 0.43 EU/mg, an ERA neutralizing antibody titer (RFFIT): EU/ml of less than 0.5 EU/ml, an ERA neutralizing antibody titer (RFFIT): EU/µM of less than 0.01 EU/µM and an ERA neutralizing antibody titer (RFFIT): nM IC50 of more than 8560 nM.
Regarding B2, the ERA neutralizing antibody titer (RFFIT): EU/mg came out at 0.55 EU/mg, the ERA neutralizing antibody titer (RFFIT): EU/ml worked out at 0.52 EU/ml, the ERA neutralizing antibody titer (RFFIT): EU/µM was found to be 0.01 EU/µM and the ERA neutralizing antibody titer (RFFIT): nM IC50 was 3940 nM.
As to B3, the ERA neutralizing antibody titer (RFFIT): EU/mg amounted to 8.35 EU/mg, the ERA neutralizing antibody titer (RFFIT): EU/ml was determined as 5.51 EU/ml, the ERA neutralizing antibody titer (RFFIT): EU/µM was 0.12 EU/µM and the ERA neutralizing antibody titer (RFFIT): nM IC50 amounted to 268 nM.
The matching figures for B4: 8.91 EU/mg, 5.97 EU/ml, 0.13 EU/µM and 251 nM.
In the same order, the values of B5 are 35.1 EU/mg, 14 EU/ml, 0.52 EU/µM and 63.7 nM.
In the same order, the values of B6 are 23.8 EU/mg, 3.81 EU/ml, 0.36 EU/µM and 94 nM.
B7 displayed an ERA neutralizing antibody titer (RFFIT): EU/mg of less than 0.63 EU/mg, an ERA neutralizing antibody titer (RFFIT): EU/ml of less than 0.5 EU/ml, an ERA neutralizing antibody titer (RFFIT): EU/µM of less than 0.01 EU/µM and an ERA neutralizing antibody titer (RFFIT): nM IC50 of more than 5960 nM.
On to B8, for which the ERA neutralizing antibody titer (RFFIT): EU/mg is less than 0.63 EU/mg, the ERA neutralizing antibody titer (RFFIT): EU/ml is less than 0.5 EU/ml, the ERA neutralizing antibody titer (RFFIT): EU/µM is less than 0.01 EU/µM and the ERA neutralizing antibody titer (RFFIT): nM IC50 was more than 5880 nM.
Turning to B9, the ERA neutralizing antibody titer (RFFIT): EU/mg was less than 0.48 EU/mg, the ERA neutralizing antibody titer (RFFIT): EU/ml was less than 0.5 EU/ml, the ERA neutralizing antibody titer (RFFIT): EU/µM is less than 0.01 EU/µM and the ERA neutralizing antibody titer (RFFIT): nM IC50 was more than 7820 nM.

A further assay deals with Rabies virus glycoprotein G, strain CVS-11 (Challenge Virus Standard-11, ATCC VR 959) (Rabies virus, strain CVS-11). Put plainly: cell-based or functional assay.
B10 registered a CVS neutralizing antibody titre (RFFIT): IU/mg of 1300 IU/mg, a CVS neutralizing antibody titre (RFFIT): IU/ml of 1290 IU/ml, a CVS neutralizing antibody titre (RFFIT): IU/nM of 36 IU/nM and a CVS neutralizing antibody titre (RFFIT): nM IC50 of 0.88 nM. The molecule also displayed a Potency (IU/nM) increase versus monovalent of 27.7 fold.
In the same order, the values of B11 are 330 IU/mg, 330 IU/ml, 8.57 IU/nM, 3.74 nM and 4.6 fold.
The molecule B12 displayed a CVS neutralizing antibody titre (RFFIT): IU/mg of 549 IU/mg, a CVS neutralizing antibody titre (RFFIT): IU/ml of 412 IU/ml, a CVS neutralizing antibody titre (RFFIT): IU/nM of 15.4 IU/nM and a CVS neutralizing antibody titre (RFFIT): nM IC50 of 2.09 nM. Besides, the Potency (IU/nM) increase versus monovalent was found to be 34.2 fold.
Take B13: the CVS neutralizing antibody titre (RFFIT): IU/mg stood at 349 IU/mg, the CVS neutralizing antibody titre (RFFIT): IU/ml worked out at 454 IU/ml, the CVS neutralizing antibody titre (RFFIT): IU/nM came out at 9.78 IU/nM and the CVS neutralizing antibody titre (RFFIT): nM IC50 is 3.28 nM. The Potency (IU/nM) increase versus monovalent amounted to 31.5 fold.

The values above are taken from patent US20200123233A1.
